Data: US20020106676A1 (MYRIAD GENETICS, published 2002)

Molecular target: T1, PN7740, amino acids 27-321 (prey of Example 34) (Saccharomyces cerevisiae; human, UniProt P04386 768-881)
T1 construct: also called novel protein PN7740
T1 sequence: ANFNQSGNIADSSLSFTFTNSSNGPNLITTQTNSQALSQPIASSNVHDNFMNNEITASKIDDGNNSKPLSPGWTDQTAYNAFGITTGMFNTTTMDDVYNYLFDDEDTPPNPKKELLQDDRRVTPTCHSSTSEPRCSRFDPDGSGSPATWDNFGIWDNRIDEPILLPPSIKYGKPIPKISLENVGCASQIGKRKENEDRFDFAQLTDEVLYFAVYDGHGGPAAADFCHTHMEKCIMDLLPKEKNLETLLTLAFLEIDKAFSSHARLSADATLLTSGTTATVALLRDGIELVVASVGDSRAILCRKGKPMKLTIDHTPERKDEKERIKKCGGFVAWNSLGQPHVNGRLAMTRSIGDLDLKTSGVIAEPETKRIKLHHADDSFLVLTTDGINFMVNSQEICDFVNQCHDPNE
Assay: yeast two-hybrid search
Experimental: The resulting diploid yeast cells expressing proteins interacting with the bait protein were selected for the ability to synthesize tryptophan, leucine, histidine, and adenine. DNA was prepared from each clone, transformed by electroporation into E. coli strain KC8 (Clontech KC8 electrocompetent cells, Catalog No. C2023- 1), and the cells were selected on ampicillin-containing plates in the absence of either tryptophane (selection for the bait plasmid) or leucine (selection for the library plasmid). DNA for both plasmids was prepared and sequenced by the dideoxynucleotide chain termination method. […] Clones that gave a positive signal in the p-galactosidase assay were considered false-positives and discarded. Plasmids for the remaining clones were transformed into yeast cells together with the original bait plasmid. Clones that gave a positive signal in the p-galactosidase assay were considered true positives.

B1: PSD95, amino acids 149-255 (bait of Example 34) (other, UniProt P04386 1-147, looked up)
chain: MKLLSSIEQACDICRLKKLKCSKEKPKCAKCLKNNWECRYSPKTKRSPLTRAHLTEVESRLERLEQLFLLIFPREDLDMILKMDSLQDIKALLTGLFVQDNVNKDAVTDRLASVETDMPLTLRQHRISATSSSEESSNKGQRQLTVSMRRKPPAEKVMEIKLIKGPKGLGFSIAGGVGNQHIPGDNSIYVTKIIEGGAAHKDGRLQIGDKILAVNSVGLEDVMHEDAVAALKNTYDVVYLKVAKPSNAYLSDSY
notes: also called DLG4; SAP-90
binding result: binds
